Test results: patent publication US20090215861A1

Target: CCR3 chemokine receptor (human) (UniProt P51677)
Assay: cell-based or functional assay

Chain of UniProt P51677 (P51677 whole entry): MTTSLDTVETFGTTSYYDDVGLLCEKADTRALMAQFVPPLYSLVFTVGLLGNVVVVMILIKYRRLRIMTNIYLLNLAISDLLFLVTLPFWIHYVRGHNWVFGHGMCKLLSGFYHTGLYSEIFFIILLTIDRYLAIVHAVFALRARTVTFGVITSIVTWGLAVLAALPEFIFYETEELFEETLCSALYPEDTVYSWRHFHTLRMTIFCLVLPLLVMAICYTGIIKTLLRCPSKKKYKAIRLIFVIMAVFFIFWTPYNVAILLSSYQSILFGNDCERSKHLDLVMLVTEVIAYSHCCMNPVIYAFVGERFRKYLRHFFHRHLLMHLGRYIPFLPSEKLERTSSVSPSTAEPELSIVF

chemotactic response of purified human eosinophils to eotaxin; decrease of migration after antisense oligonucleotides against CCR3: 55.6%
Substance: rhEotaxin (Biosource, cat# PMC1434) (from UniProt P51671 24-97) (ligand)
